# Assay results taken from article PMC12102759 (2025).
# B1: AXIN1 peptide 237-252 (Axin-1), 16-mer library wild type / PP2A B56 (PPP2R5A B56 domain, residues 1-486) (parent complex)
# chain 1: YLPTLNEDEEWKADQD
# chain 2: not shown
# Variants of: B1
# Assay: proteomic peptide phage display deep mutational scan (ProP-PD DMS): M13 P8 16-mer library selected against immobilised GST-tagged bait for four days (rounds), NGS of the eluted pools per day and pseudo-replica; bait immobilised on MaxiSorp plates (10 µg), library pre-cleared on GST, 2 h binding at 4 °C, five washes; one round per day, days 1-4; value from days 2 and 3
row,Variant,screen value
1,chain 1 D8Q,"0.00238 average fractional NGS count over selection days 2 and 3 (reads of this peptide / all reads for the bait, averaged over …"
2,chain 1 D8K,"0.00103 average fractional NGS count over selection days 2 and 3 (reads of this peptide / all reads for the bait, averaged over …"
3,chain 1 D8A,"0.000509 average fractional NGS count over selection days 2 and 3 (reads of this peptide / all reads for the bait, averaged over …"
4,chain 1 D8H,"0.00852 average fractional NGS count over selection days 2 and 3 (reads of this peptide / all reads for the bait, averaged over …"
5,chain 1 D14P,"0.00181 average fractional NGS count over selection days 2 and 3 (reads of this peptide / all reads for the bait, averaged over …"
6,chain 1 D14G,"0.00106 average fractional NGS count over selection days 2 and 3 (reads of this peptide / all reads for the bait, averaged over …"
7,chain 1 D14A,"0.00375 average fractional NGS count over selection days 2 and 3 (reads of this peptide / all reads for the bait, averaged over …"
8,chain 1 D14Y,"0.00582 average fractional NGS count over selection days 2 and 3 (reads of this peptide / all reads for the bait, averaged over …"
9,chain 1 D14N,"0.00275 average fractional NGS count over selection days 2 and 3 (reads of this peptide / all reads for the bait, averaged over …"
10,chain 1 D14V,"0.00647 average fractional NGS count over selection days 2 and 3 (reads of this peptide / all reads for the bait, averaged over …"
11,chain 1 D14S,"0.00823 average fractional NGS count over selection days 2 and 3 (reads of this peptide / all reads for the bait, averaged over …"
12,chain 1 D14E,"0.00475 average fractional NGS count over selection days 2 and 3 (reads of this peptide / all reads for the bait, averaged over …"
13,chain 1 D14T,"0.00142 average fractional NGS count over selection days 2 and 3 (reads of this peptide / all reads for the bait, averaged over …"
14,chain 1 D14I,"0.000947 average fractional NGS count over selection days 2 and 3 (reads of this peptide / all reads for the bait, averaged over …"
15,chain 1 D14Q,"0.00055 average fractional NGS count over selection days 2 and 3 (reads of this peptide / all reads for the bait, averaged over …"
16,chain 1 D14F,"0.0121 average fractional NGS count over selection days 2 and 3 (reads of this peptide / all reads for the bait, averaged over …"
17,chain 1 A13G,"0.000231 average fractional NGS count over selection days 2 and 3 (reads of this peptide / all reads for the bait, averaged over …"
18,chain 1 A13T,"0.000184 average fractional NGS count over selection days 2 and 3 (reads of this peptide / all reads for the bait, averaged over …"
19,chain 1 A13H,"0.00442 average fractional NGS count over selection days 2 and 3 (reads of this peptide / all reads for the bait, averaged over …"
20,chain 1 A13P,"0.00194 average fractional NGS count over selection days 2 and 3 (reads of this peptide / all reads for the bait, averaged over …"
21,chain 1 A13R,"0.000134 average fractional NGS count over selection days 2 and 3 (reads of this peptide / all reads for the bait, averaged over …"
22,chain 1 A13Q,"0.000245 average fractional NGS count over selection days 2 and 3 (reads of this peptide / all reads for the bait, averaged over …"
23,chain 1 A13S,"0.0021 average fractional NGS count over selection days 2 and 3 (reads of this peptide / all reads for the bait, averaged over …"
24,chain 1 A13V,"0.000342 average fractional NGS count over selection days 2 and 3 (reads of this peptide / all reads for the bait, averaged over …"

row,Variant,screen value
1,chain 1 A13I,"0.00149 average fractional NGS count over selection days 2 and 3 (reads of this peptide / all reads for the bait, averaged over …"
2,chain 1 A13N,"0.000152 average fractional NGS count over selection days 2 and 3 (reads of this peptide / all reads for the bait, averaged over …"
3,chain 1 A13L,"0.000528 average fractional NGS count over selection days 2 and 3 (reads of this peptide / all reads for the bait, averaged over …"
4,chain 1 K12D,"0.000722 average fractional NGS count over selection days 2 and 3 (reads of this peptide / all reads for the bait, averaged over …"
5,chain 1 K12Y,"0.00745 average fractional NGS count over selection days 2 and 3 (reads of this peptide / all reads for the bait, averaged over …"
6,chain 1 K12I,"0.00212 average fractional NGS count over selection days 2 and 3 (reads of this peptide / all reads for the bait, averaged over …"
7,chain 1 K12Q,"0.00267 average fractional NGS count over selection days 2 and 3 (reads of this peptide / all reads for the bait, averaged over …"
8,chain 1 K12L,"0.00105 average fractional NGS count over selection days 2 and 3 (reads of this peptide / all reads for the bait, averaged over …"
9,chain 1 K12S,"0.0233 average fractional NGS count over selection days 2 and 3 (reads of this peptide / all reads for the bait, averaged over …"
10,chain 1 K12E,"0.000936 average fractional NGS count over selection days 2 and 3 (reads of this peptide / all reads for the bait, averaged over …"
11,chain 1 K12P,"0.00867 average fractional NGS count over selection days 2 and 3 (reads of this peptide / all reads for the bait, averaged over …"
12,chain 1 K12V,"0.00977 average fractional NGS count over selection days 2 and 3 (reads of this peptide / all reads for the bait, averaged over …"
13,chain 1 K12H,"0.0202 average fractional NGS count over selection days 2 and 3 (reads of this peptide / all reads for the bait, averaged over …"
14,chain 1 K12N,"0.00219 average fractional NGS count over selection days 2 and 3 (reads of this peptide / all reads for the bait, averaged over …"
15,chain 1 K12R,"0.00196 average fractional NGS count over selection days 2 and 3 (reads of this peptide / all reads for the bait, averaged over …"
16,chain 1 E10Y,"0.00105 average fractional NGS count over selection days 2 and 3 (reads of this peptide / all reads for the bait, averaged over …"
17,chain 1 E10T,"0.00217 average fractional NGS count over selection days 2 and 3 (reads of this peptide / all reads for the bait, averaged over …"
18,chain 1 E10R,"0.000173 average fractional NGS count over selection days 2 and 3 (reads of this peptide / all reads for the bait, averaged over …"
19,chain 1 E10I,"0.0037 average fractional NGS count over selection days 2 and 3 (reads of this peptide / all reads for the bait, averaged over …"
20,chain 1 E10P,"0.00206 average fractional NGS count over selection days 2 and 3 (reads of this peptide / all reads for the bait, averaged over …"
21,chain 1 E10V,"0.0046 average fractional NGS count over selection days 2 and 3 (reads of this peptide / all reads for the bait, averaged over …"
22,chain 1 E10M,"0.00109 average fractional NGS count over selection days 2 and 3 (reads of this peptide / all reads for the bait, averaged over …"
23,chain 1 L2M,"0.000692 average fractional NGS count over selection days 2 and 3 (reads of this peptide / all reads for the bait, averaged over …"
24,chain 1 W11R,"0.000154 average fractional NGS count over selection days 2 and 3 (reads of this peptide / all reads for the bait, averaged over …"

row,Variant,screen value
1,chain 1 W11Y,"0.000932 average fractional NGS count over selection days 2 and 3 (reads of this peptide / all reads for the bait, averaged over …"
2,chain 1 W11S,"0.000194 average fractional NGS count over selection days 2 and 3 (reads of this peptide / all reads for the bait, averaged over …"
3,chain 1 W11H,"0.000184 average fractional NGS count over selection days 2 and 3 (reads of this peptide / all reads for the bait, averaged over …"
4,chain 1 W11F,"0.0013 average fractional NGS count over selection days 2 and 3 (reads of this peptide / all reads for the bait, averaged over …"
5,chain 1 W11L,"0.000123 average fractional NGS count over selection days 2 and 3 (reads of this peptide / all reads for the bait, averaged over …"
6,chain 1 W11T,"0.000334 average fractional NGS count over selection days 2 and 3 (reads of this peptide / all reads for the bait, averaged over …"
7,chain 1 P3Q,"0.000844 average fractional NGS count over selection days 2 and 3 (reads of this peptide / all reads for the bait, averaged over …"
8,chain 1 P3S,"0.00024 average fractional NGS count over selection days 2 and 3 (reads of this peptide / all reads for the bait, averaged over …"
9,chain 1 P3T,"0.000276 average fractional NGS count over selection days 2 and 3 (reads of this peptide / all reads for the bait, averaged over …"
10,chain 1 P3A,"0.000353 average fractional NGS count over selection days 2 and 3 (reads of this peptide / all reads for the bait, averaged over …"
11,chain 1 N6F,"0.000398 average fractional NGS count over selection days 2 and 3 (reads of this peptide / all reads for the bait, averaged over …"
12,chain 1 N6A,"0.00273 average fractional NGS count over selection days 2 and 3 (reads of this peptide / all reads for the bait, averaged over …"
13,chain 1 N6S,"0.0193 average fractional NGS count over selection days 2 and 3 (reads of this peptide / all reads for the bait, averaged over …"
14,chain 1 N6Y,"0.000368 average fractional NGS count over selection days 2 and 3 (reads of this peptide / all reads for the bait, averaged over …"
15,chain 1 N6W,"0.000792 average fractional NGS count over selection days 2 and 3 (reads of this peptide / all reads for the bait, averaged over …"
16,chain 1 N6L,"0.00123 average fractional NGS count over selection days 2 and 3 (reads of this peptide / all reads for the bait, averaged over …"
17,chain 1 N6P,"0.0105 average fractional NGS count over selection days 2 and 3 (reads of this peptide / all reads for the bait, averaged over …"
18,chain 1 N6M,"0.000248 average fractional NGS count over selection days 2 and 3 (reads of this peptide / all reads for the bait, averaged over …"
19,chain 1 N6H,"0.0272 average fractional NGS count over selection days 2 and 3 (reads of this peptide / all reads for the bait, averaged over …"
20,chain 1 N6T,"0.00301 average fractional NGS count over selection days 2 and 3 (reads of this peptide / all reads for the bait, averaged over …"
21,chain 1 N6E,"0.00107 average fractional NGS count over selection days 2 and 3 (reads of this peptide / all reads for the bait, averaged over …"
22,chain 1 N6I,"0.00196 average fractional NGS count over selection days 2 and 3 (reads of this peptide / all reads for the bait, averaged over …"
23,chain 1 N6Q,"0.00501 average fractional NGS count over selection days 2 and 3 (reads of this peptide / all reads for the bait, averaged over …"
